According to US6790824B1, “Cytokines having neurotrophic activity” (Biopharm Gesellschaft zur biotechnologischen Entwicklung …, priority 1997, dated 2004):

What was measured:
[1] = tested on: embryonic chicken dorsal root ganglia (DRG) neurons; experiment: Survival of dissociated embryonic chick dorsal root ganglia (DRG) neurons, 48 h, counting of surviving neurons; type: cell-based
Protocol: Dissociated cultures of embryonic chicken dorsal root ganglia (DRG) were generated as described in details by Krieglstein and Unsicker (Neurochem. Res., 21(7) (1996) 843-850). Briefly, DRGs from white Leghorn chick embryos (day 8) were dissected in Ca^2+-Mg^2+ free Hanks' balanced salt solution. After incubation in 0.08% trypsin for 15 min ganglia were dissociated by trituration. Cells were seeded in polyomithin-laminin coated 96-well microtiter plates (A/2 Costar) at a density of 1,200 cells/well. Growth factors were applied at the time of plating in a final volume of […] Dulbecco's Modified Eagle's Medium supplemented with 0.25% bovine serum albumin, N1 additives and 100 U/ml penicillin. As a positive control, nerve growth factor (NGF) was used at the saturating concentration of 5 ng/ml. After 48 h of incubation at 37° C. in a humidified atmosphere containing 5% CO2, cultures were fixed with 2.5% glutaraldehyde. Neuronal cells were identified by their phase-bright and neurite-bearing morphologies and counted within 30% of the total surface area using phase contrast microscopy. In the first set of experiments we tested the survival promoting effect of several growth factors of the bone morphogenetic protein family.
(§1) Embryonic chick ciliary (CG), dorsal root (DRG), and sympathetic (SG) ganglia at embryonic day(s) (E) 8, 10, and 12, were dissected, freed from nerve roots and connective tissue and collected in CME. Ganglia were incubated in trypsin (ICN), washed and dissociated by trituration using fire-polished Pasteur pipettes. Cultures were set up in 96-well microtiter plates (Costar, A/2), precoated with poly-L-ornithine and laminin at a density of 1,200-1,500 cells/well in DMEM supplemented with N1 additives, 0.25% BSA, and 0.1% PSN (DME/N1) and incubated at 37° C. in a 5% CO2 incubator.
(§2) At appropriate times (CG: 24 h, DRG: 48 h, SG: 72 h) cultures were fixed by addition of 2.5% glutardialdehyde in phosphate buffered saline (PBS). Numbers of surviving neurons were determined by direct counting of 30% of the surface area using phase contrast microscopy.
Dissociated cultures of embryonic chicken dorsal root ganglia (DRGs) were generated as described in details by Krieglstein and Unsicker (Dev. Brain. Rees. 93 (1996) 10-17). Briefly, DRGs were dissected in Ca^2+-Mg^2+ free Hank's balanced salt solution (CMF). After incubation in 0.08% trypsin (BioWhittaker) for 15 min, ganglia were dissociated by gentle trituration using fire-polished Pasteur pipettes. Cells in suspension (neuron/non-neuron ratio 1:2) were seeded in polyomithin-laminin coated 96-well microtiter plates (A/2 Costar) at a density of 1,200 cells/well. Growth factors were applied at the time of plating in a final volume of 50 μl Dulbecco's Modified Eagle's Medium supplemented with 0.25% bovine serum albumin, N1 additives (Bottenstein et al., Exp. Cell Res. 125 (1980) 183-190) and 100 U/ml penicillin. As a positive control, nerve growth factor (NGF) was used at the saturating concentration of 10 ng/ml. After 48 h of incubation at 37° C. in a humidified atmosphere containing 5% CO2, cultures were fixed with 2.5% glutaraldehyde in phosphate buffered saline (PBS). Neuronal cells were identified by their phase-bright and neurite-bearing morphologies and counted within 30% of the total surface area using phase contrast microscopy. All experiments were performed in at least triplicate in two independent experiments. Data are presented as mean±SEM. Statistical comparisons were made with student's double t-test, ANOVA and MicrocalOrigin software. Differences were considered statistically significant at *P<0.05, **P<0.01, **P<0.001.

[2] = tested on: chick ciliary ganglionic (CG) neurons; experiment: Survival of embryonic chick ciliary ganglionic (CG) neurons, 24 h, counting of surviving neurons; type: cell-based
Protocol: as §1, §2
Phosphatidylinositol-specific phospholipase C (PIPLC) is an enzyme that specifically cleaves glycosyl-phosphatidylinositol (GPI) linkages. Embryonic chick ciliary ganglionic neurons (E8) were isolated and seeded as described before. Neurons were incubated for 1 h at 37° C. with 1) 100 mU PIPLC or II) 100 mU PIPLC+2 ng/ml TGFβ or III) without enzyme and then growth factors were added. The number of surviving neurons was determined 24 h later.

[3] = tested on: chick sympathetic ganglionic (SG) neurons; experiment: Survival of embryonic chick sympathetic ganglionic (SG) neurons, 72 h, counting of surviving neurons; type: cell-based
Protocol: as §1, §2

[4] = tested on: rat embryonic mesencephalic dopaminergic neurons (E14); experiment: Survival of rat embryonic mesencephalic dopaminergic neurons, count of tyrosine hydroxylase (TH) immunoreactive neurons after 8 days; type: cell-based; settings: GDNF 10 ng/ml, TGF-β3 2 ng/ml, 8 days in culture
Protocol: FIG. 8 depicts the survival promoting effect of GDNF on rat embryonic mesencephalic dopaminergic neurons (E14) is dependent on the presence of TGF-β. Dissociated cultures were treated with GDNF (10 ng/ml), with GDNF in the presence of anti-TGF-β1, -β2, -β3 (10 μg/ml), with TGF-β3 (2 ng/ml) or without any growth factor added (control) for 8 days in culture. Numbers of dopaminergic neurons were determined by counting the numbers of tyrosine hydroxylase (TH) immunoreactive neurons.

[5] = tested on: preganglionic neurons to the adrenal medulla; experiment: Preganglionic neuron protection in vivo after adrenomedullectomy; parameters: species or system rat; settings: adult rats, 1 μg GDNF in gelfoam into the medullectomized adrenal gland, four weeks
Protocol: This type of target deprivation causes the death of all preganglionic neurons to the adrenal medulla at four weeks, as previously shown by Blottner and Baumgarten (Exp. Neurol. 118 (1992) 35-46).
Adrenomedullectomy was performed on adult male Hanover-Wistar rats. Preganglionic neurons in the spinal cord innervating adrenal medullary chomaffin cells were identified by retrograde tracing with Fast Blue or Fluoro-Gold (FG). Factors (1 μg each) were soaked in gelfoam (Spongostan, Ferrosan, Soeburg, Denmark) prior to implantation into unilaterally medullectomized adrenal glands. Numbers of FG-labeled preganglionic neurons were determined by cell counts of complete series of longitudinal sections through spinal cord segments T7-T10 four weeks post-surgery. Only brightly fluorescent neurons containing a clearly visible nucleus were counted. Total numbers were corrected for possible double counts of split nuclei according to Abercombie's formula. Numbers of preganglionic neurons to the adrenal medulla surviving in sham-operated animals and on the unlesioned side were set as 100%. Data are given as mean values±SEM and the statistical significance of intergroup differences was determined by Student's t-test.

[6] = tested on: embryonic chicken dorsal root ganglia (DRG) neurons; experiment: Survival of dissociated embryonic chick dorsal root ganglia (DRG) neurons, 48 h, counting of surviving neurons; type: cell-based; settings: E8, 10% horse serum, saturating GDNF; compared with NGF in serum-free medium
[7] = E8, serum-free, factor added by itself

B1: GDNF: rh GDNF, neurotrophic factor, member of the TGF-β superfamily (protein, UniProt P39905 78-211, looked up)
Glial cell line-derived …: SPDKQMAVLPRRERNRQAAAANPENSRGKGRRGQRGKNRGCVLTAIHLNVTDLGLGYETKEELIFRYCSGSCDAAETTYDKILKNLSRNRRLVSDKVGQACCRPIAFDDDLSFLDDNLVYHILRKHSAKRCGCI
With B1 as the molecule, how does the “DRG neuron survival, single factor in serum-free medium” value [1, 7] read?
Its value is “virtually no survival promoting effect”.

What about the “effect on DRG neuron survival when added together with GDF-5” value ([1]; factor at saturating concentration plus GDF-5 20 ng/ml, E8, 48 h) of the same molecule?
Its value is “synergistic or additive effects”.

What about the “CG neuron survival with GDNF supplemented with 10% horse serum” value ([2]; E8, 24 h, compared with CNTF 5 ng/ml) of the same molecule?
Its value is “as effectively as a saturating concentration of CNTF”.

What about the “EC50 of the synergistic survival effect” value ([2]; factor titrated in combination with 2 ng/ml of the other factor (GDNF/TGF-β), serum-free) of the same molecule?
Its value is 0.06 ng/mL.

What about the “CG neuron survival, single factor in fully-defined medium” value ([2]; serum-free, each at the saturating amount of 2 ng/ml) of the same molecule?
Its value is “only marginal survival promoting effects”.

And the “SG neuron survival with GDNF in serum containing medium” value ([3]; E8, 10% horse serum, saturating GDNF, compared with NGF in serum-free medium)?
The value was “levels identical to those achieved by addition of the respective neurotrophic factor”.

And the “SG neuron survival, single factor in serum-free medium” value [3, 7]?
Its value is “virtually no survival promoting effect”.

And the “survival of dopaminergic neurons relative to untreated control cultures” value [4]?
Its value is 160%.

And the “protection of preganglionic neurons after adrenomedullectomy” value [5]?
Its value is “fully protected the neurons”.

And the “DRG neuron survival with GDNF in serum containing medium” value [6]?
The value was “levels identical to those achieved by addition of the respective neurotrophic factor”.
